Key:
[1] = Luciferase luminescence in E. coli lysates after luciferin addition; assay type: biochemical; details: 100 μM luciferin, maximal brightness
From the text: A library of amino acid substitutions was created applying mutagenesis to a gene encoding the luciferase derived from Neonothopanus nambi (SEQ ID NO: 8). pF4Ag shuttle vector (Promega) was used for gene expression in E. coli (T7 promoter-driven expression) and mammalian cells (CMV promoter-driven expression). The pF4Ag vector backbone introduces a C-terminal 3×-FLAG-HiBiT tag. Site-directed mutagenesis was used to substitute consensus amino acids at selected position in the luciferase sequence. Gene expression was performed in the E. coli strain KRX (Promega), which enables rhamnose-inducible expression of T7 RNA polymerase.
Colonies (in triplicate) were used to inoculate LB broth containing ampicillin ([…]) and cultures grown overnight in 96-well microtiter plates (20 hours, 37° C.). Cultures were diluted into fresh LB containing 0.1% rhamnose and ampicillin and grown for 3 hours at 37° C. 50 μl of the induced culture was lysed for 5 minutes at ambient temperature with a reagent consisting of 25 mM HEPES pH 7.5 and 0.3×PLB (E1941 Promega). 50 μl of lysate was combined with 50 μl luciferin (100 μM) in the lysis buffer and samples were measured for total luminescence using a GloMax®-Multi+luminometer. (Promega).

[2] = Enzyme thermostability in cleared E. coli lysates incubated at 22° C.; assay type: biochemical; details: then 100 μM luciferin
Procedure: To assess the effect on enzyme thermostability by the amino acid substitutions, lysates of transformed E. coli were prepared by sonication and cleared by centrifugation. The cleared lysates were diluted 1:100 into Tris-buffered saline with 0.01% BSA and 0.1% n-dodecyl β-D-maltoside. 100 μl of each diluted lysate were added to a 96-well PCR plate. Samples were incubated at 22° C. and at various time points aliquots were placed on ice. When all of the samples were processed, 50 μl of each was combined with 50 μl of 100 μM luciferin in Tris-buffered saline with 0.01% BSA and 0.1% n-dodecyl β-D-maltoside. Samples were immediately placed in a GloMax®-Multi+luminometer (Promega) to measure bioluminescence.

[3] = system: yeast cells (P. pastoris); test: Stability of luciferase within yeast cells after 10 min incubation at different temperatures; assay type: cell-based; details: then luciferin; for reduction of luminescence after incubation at 40° C.: 10 min at 40° C.; for reduction of luminescence after incubation at 45° C.: 10 min at 45° C.
Procedure: To evaluate stability of nnLuz_WT and nnLuz_v4 within yeast cells, strains expressing nnLuz WT or nnLux_v4 were grown on plates for 24 hours, then resuspended in PBS to final OD (600 nm)=5 and 50 μl was placed in wells of a 96-well PCR plate. Different portions of the plate were incubated at different temperatures for 10 minutes using a gradient thermal cycler. The plate were then placed on ice for 5 minutes and 10 μl of 500 μM luciferin (2% DMSO, 10 mM thioglycolic acid, 0.1% DDM in DPBS) were added to each well. Then 25 μl of suspension from each well was transferred to a black 96-well plate containing 0.2 M sodium phosphate buffer with 0.5 M Na2SO4,pH=8.

[4] = system: HEK293 cells; test: Hispidin hydroxylase activity in HEK293 cells co-transfected with nnLuz_v3, hispidin added, normalized to HiBiT; assay type: cell-based
Procedure: A library of amino acid substitutions was created applying mutagenesis to a gene encoding the hispidin hydroxylase derived from Neonothopanus nambi (SEQ ID NO: 12). This was achieved by the same method as described in Example 1. Activity was evaluated in HEK293 cells co-transfected with a gene encoding nnLuz_v3. Bioluminescence was measured as described in Example 1, except with addition of hispidin instead of luciferin.
To estimate specific activity, both luciferase activity and HiBiT were measure for each sample (see Example 2). Activity of each variant was then normalized to the expression level (i.e., luciferase bioluminescence/HiBiT signal). Substitutions at 28 positions were examined by this method.

[5] = system: Pichia pastoris GS115; test: Luminescence imaging of transformed yeast after addition of luciferin, hispidin or caffeic acid; assay type: cell-based
Procedure: Integration of plasmids into the genome of Pichia pastoris GS115 was targeted at the GAP promoter locus. Linearized plasmids were used for the transformation of electrically competent yeast cells. Colonies were selected using […] of G418 or 200 mg/ml of hygromycin or 50 mg/ml of zeocin. PCR-based screening of yeast colonies was done by heating up colonies in 10 μl of 20 mM NaOH at 90° C. for 7 min and then using 1 μl of the resulting solution for direct PCR. For luminescence imaging, yeast culture grown on plate was resuspended in 50 μL of 1M sorbitol. 5 μL of the suspension was then added in 3 replicates to YPD agar plates lacking antibiotics. […] Imaging was performed in Fusion Pulse (Vilber, France), with exposure of 0.1 or 5 sec every 3 or 5 min for 1.0-1.5 hours—for caffeic acid treatment, with exposure of 20 sec for 20 mins—for hispidin treatment, with exposure of 0.5 sec every 10 sec for 10 mins in case of luciferin treatment.
Processing of images was performed using FiJi ImageJ distribution (version 1.53t) 20 and custom Python scripts (Python version 3.8). For luminescence quantification mean values in the region of interest after background subtraction were used. Background subtraction was performed using the following formula: signal=signalraw−(backgroundmean−3*backgroundSD).

[6] = Michaelis-Menten kinetics of HiBiT-fused luciferase in yeast lysates; assay type: biochemical; details: fitted Michaelis-Menten model
From the text: To quantify the activity of nnLuz_v4 relative to the parental nnLuz_WT, genetic fusions were made with the HiBiT tag. The HiBiT tag is a small bioluminescent marker that may be appended onto other proteins, thereby providing a mechanism for measuring relative protein concentration. By fusing the tag onto the C-terminus of luciferase, variability in protein concentration can be normalized across independent samples.
Yeast strains expressing fusions of nnLuz_WT and nnLuz_v4 with HiBiT were inoculated into YPD medium and cultured at 30° C. with 220 rpm for 18-20 hours. Then 4 ml of each yeast suspension were centrifuged at 5000 g (4° C.) and resuspended in 400 μL of 100 mM MOPS (pH=7.5), 4 mM EDTA, 2 mM TCEP, 1 mM PMSF. […]
Samples were diluted 25 fold in the same buffer as used for lysis and concentrated to a volume of 200 μL using Amicon Ultra-15 Centrifugal Filter Unit 10 kDa (Millipore). […] Luminescence was measured in Tecan Spark plate-reader with exposure of 500 ms for 15 min. Activity of each variant was normalized to the expression level of HiBiT, as quantified with HiBiT lytic reagent (Promega N3030).
To quantify luminescence, intensity values of the wells were normalized by the integral values for HiBiT luminescence kinetics. Then, the integral signal for each sample was calculated. […]

Molecule | production of bioluminescence relative to parental nnLuz [1] | enzyme stability relative to unmodified parental luciferase [2] | reduction of luminescence after incubation at 40° C. [3] | reduction of luminescence after incubation at 45° C. [3] | further results
T99P: nnLuz luciferase variant with single amino acid substitution T99P (protein, UniProt A0A3G9JYH7 1-267, looked up, variant T99P) Luciferase: MRINISLSSLFERLSKLSSRSIAITCGVVLASAIAFPIIRRDYQTFLEVGPSYAPQNFRGYIIVCVLSLFRQEQKGLAIYDRLPEKRRWLADLPFREGPRPSITSHIIQRQRTQLVDQEFATRELIDKVIPRVQARHTDKTFLSTSKFEFHAKAIFLLPSIPINDPLNIPSHDTVRRTKREIAHMHDYHDCTLHLALAAQDGKEVLKKGWGQRHPLAGPGVPGPPTEWTFLYAPRNEEEARVVEMIVEASIGYMTNDPAGKIVENAK | significant improvements | more stable | – | – | –
nnLuz_WT: parental luciferase derived from Neonothopanus nambi (SEQ ID NO: 1) (protein, listed as Neonothopanus nambi) MRINISLSSLFERLSKLSSRSIAITCGVVLASAIAFPIIRRDYQTFLEVGPSYAPQNFRGYIIVCVLSLFRQEQKGLAIYDRLPEKRRWLADLPFREGTRPSITSHIIQRQRTQLVDQEFATRELIDKVIPRVQARHTDKTFLSTSKFEFHAKAIFLLPSIPINDPLNIPSHDTVRRTKREIAHMHDYHDCTLHLALAAQDGKEVLKKGWGQRHPLAGPGVPGPPTEWTFLYAPRNEEEARVVEMIVEASIGYMTNDPAGKIVENAK | – | – | > 3 fold | 100 fold | –
A199P: nnLuz luciferase variant with single amino acid substitution A199P (protein, listed as Neonothopanus nambi) MRINISLSSLFERLSKLSSRSIAITCGVVLASAIAFPIIRRDYQTFLEVGPSYAPQNFRGYIIVCVLSLFRQEQKGLAIYDRLPEKRRWLADLPFREGTRPSITSHIIQRQRTQLVDQEFATRELIDKVIPRVQARHTDKTFLSTSKFEFHAKAIFLLPSIPINDPLNIPSHDTVRRTKREIAHMHDYHDCTLHLALAPQDGKEVLKKGWGQRHPLAGPGVPGPPTEWTFLYAPRNEEEARVVEMIVEASIGYMTNDPAGKIVENAK | significant improvements | more stable | – | – | –
T192S: nnLuz luciferase variant with single amino acid substitution T192S (protein, listed as Neonothopanus nambi) MRINISLSSLFERLSKLSSRSIAITCGVVLASAIAFPIIRRDYQTFLEVGPSYAPQNFRGYIIVCVLSLFRQEQKGLAIYDRLPEKRRWLADLPFREGTRPSITSHIIQRQRTQLVDQEFATRELIDKVIPRVQARHTDKTFLSTSKFEFHAKAIFLLPSIPINDPLNIPSHDTVRRTKREIAHMHDYHDCSLHLALAAQDGKEVLKKGWGQRHPLAGPGVPGPPTEWTFLYAPRNEEEARVVEMIVEASIGYMTNDPAGKIVENAK | significant improvements | more stable | – | – | –
M385K: nnH3H hispidin hydroxylase variant with single substitution M385K (protein, listed as Neonothopanus nambi) MASFENSLSVLIVGAGLGGLAAAIALRRQGHVVKIYDSSSFKAELGAGLAVPPNTLRSLQQLGCNTENLNGVDNLCFTAMGYDGSVGMMNNMTDYREAYGTSWIMVHRVDLHNELMRVALDPGGLGPPATLHLNHRVTFCDVDACTVTFTNGTTQSADLIVGADGIRSTIRRFVLEEDVTVPASGIVGFRWLVQADALDPYPELDWIVKKPPLGARLISTPQNPQSGVGLADRRTIIIYACRGGTMVNVLAVHDDERDQNTADWSVPASKDDLFRVFHDYHPRFRRLLELAQDINLWQMRVVPVLKKWVNKRVCLLGDAAHASLPTLGQGFGMGLEDAVALGTLLPKGTTASQIETRLAVYEQLRKDRAEFVAAESYEEQYVPEKRGLYLRSKELRDRVMGYDIKVESEKVLETLLRSSNSA | – | – | – | – | bioluminescence over parental enzyme nnH3H_WT, normalized to expression level (HiBiT) [4]: significantly increased bioluminescence
nnLuz_v4 (protein, listed as Neonothopanus nambi) MRSTISLSSLLERLSKLSSRSIAITCGVVLASAIAFPIIRRDYQTFLEVGPSYAPQNFRGYITVCVLSLFRQEQKGLAIYDRLPEKRRWLADLPFREGPRPSITSHIIQRQRTQLVDQEFATRELIDKVIPRVQARHTDKTFLSTSKFEFHAKAIFLLPSIPINDPLNIPSHDTVRRTKREIAHMHDYHDCSLHLALAPQDGKEVLKKGWGQRHPLAGPGVPGPPTEWTFLYAPRNEEEARVVEMIVEASIGYMTNDPAGKIVENAKGS | – | – | no loss of activity | 3 fold | bioluminescence relative to cells expressing nnLuz_WT ([5]; addition of 50 μM luciferin): greater bioluminescence; greater luminescence relative to nnLuz_WT ([5]; combined with nnH3H_v2, mcitHispS and NpgA, caffeic acid): 1.9 fold; Km relative to nnLuz_WT [6]: similar; higher Vmax relative to nnLuz_WT ([6]; normalized to HiBiT): 4.2 fold
